Reference: paper PMC6702468
Substitutions are numbered along the chain they refer to. Names may count otherwise.

Substrate: O[Si](O)(O)O
Assay: cells, lysate or membranes
Conditions: unit not printed beside Km, taken from [Si]ext in mM

B1: NsLsi1 (NsNIP2-1) (Nicotiana sylvestris) (protein)
chain: MESERGNSTENKKPNELVSVENPKSNLSFRYILIFFQEHYPPGFLKKVIAEVIATYLLVFVTCGAAAISASDEHKVSRLGASVAGGLIVTVMIYAVGHISGAHMNPAVTFAFAAVRHFPWRQVPPYAAAQLTGATSAAFTLRVLLHPIKHVGTTTPSGSDIQALIMEIVVTFSMMFITSAVATDTKAIGELAGMAVGSAVCITSILAGPVSGGSMNPARTIGPAMASNDYRGIWVYIIGPVCGTLLGAWSYNFIRVTDKPVHAIAPGQSFSFKLRRMKSNDEEQGV
How did the Km (3 hr exposure in modified Barth's solution pH 7.4, room temperature, H2O-injected background subtracted, transport, R2 = 0.90, pH 7.4) turn out when B1 was run?
The Km was 0.94 ± 0.30 mM.

B2: NsLsi1 (NsNIP2-1) (Nicotiana sylvestris; P125F) (protein)
chain: B1 chain with P125F
With B2 as the protein, how does the Km (otherwise as WT, paper states a linear equation fits best (R2 = 0.99) and Km lies far above the tested range (up to 2 mM)) read?
The Km was 12.83 ± 8.49 mM.
